Here are results for 1 molecule from patent CN111875700A (CUSABIO BIOTECH CO LTD, dated 2020).

For the experiment, the target named is T1, SARS-COV-2病毒N蛋白 (nucleocapsid protein) (SARS-COV-2, UniProt P0DTC9 1-419).
T1 construct: Recombinant N protein; also called 核衣壳蛋白
The experiment is described as follows: ELISA of scFv supernatants on coated N protein, detected with anti-E/HRP. (ELISA stands for enzyme-linked immunosorbent assay.)

B1: 1A6单链抗体 (1A6 scFv) (scFv)
scFv: EVKLKESGAELVKPGASVKLSCTASGFNIKDTYMHWVKQRPGQGLEWIGYINPSTGYTEYNQKFKDKATLTADKSSSTAYMQLSSLTSEDSAVYYCARDALGWYFDVWGAGTLVTVSTGGGGSGGGGSGGGGSDVVMTQSHKFMSTSVGDRVSVTCKASQNVGTNVAWYQQKPGQFPKALIYSASYRYSGVPDRFTGSGSGTDFTLTISNVQSEDLAEYFCQQYNSYPLTFGAGTKLEIK
notes: also called 1A6 single-chain antibody; not shown: E-tag from vector pCANTAB5E (detected with anti-E/HRP)
On to B1, for which the binding result is “binds”.
